Measurements as given in publication PMC10245680 (bioRxiv, 2023).

Legend:
[1] = target: vUNG expressed in MHV68-infected 3T12 cells (Murid herpesvirus 4 (MHV68 wild type …, UniProt P88984)); assay: flow cytometry on cells
[2] = target: recombinant murine uracil DNA glycosylase (UNG) (Mus musculus, UniProt P97931); assay: ELISA
[3] = target: viral UNG (vUNG) expressed in transfected 293 cells (Murid herpesvirus 4 (MHV68), isolate …, UniProt P88984); assay: immunostaining of cells or tissue

recombinant murine uracil DNA glycosylase (UNG), sequence (P97931 whole entry): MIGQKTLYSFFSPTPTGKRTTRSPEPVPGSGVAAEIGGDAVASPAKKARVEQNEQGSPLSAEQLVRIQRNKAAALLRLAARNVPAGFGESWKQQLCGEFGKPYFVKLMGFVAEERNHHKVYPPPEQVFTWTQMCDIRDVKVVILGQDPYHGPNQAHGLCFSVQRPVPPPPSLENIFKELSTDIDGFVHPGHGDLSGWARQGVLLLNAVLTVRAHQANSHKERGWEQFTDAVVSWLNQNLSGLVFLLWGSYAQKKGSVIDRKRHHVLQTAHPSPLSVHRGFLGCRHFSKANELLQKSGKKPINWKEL

B1: recombinant mouse anti-vUNG antibody (against MHV68 ORF46 / viral uracil DNA glycosylase) (antibody, V domains shown)
VH: QVQLQQPGAELVKPGASVKMSCKASGYTFTSYWITWVKQRPGQGLEWIGDIYPGSGSTKYNEKFKSKATLTVDTSSSTAYMQLSSLTSEDSAVYYCARLDYYYAMDYWGQGTSVTVSS
VL: DIVMTQSQKFMSTSVGDRVSVTCKASQNVGTNVAWYQQKPGQSPKALIYSASYRYSGVPDRFTGSGSGTDFTLTISNVPSEDLAEYFCQQYNNYPLTFGSGTKLEIK
**Q.** Does B1 bind [1]?
**A.** Result: binds

**Q.** Does B1 bind [2]?
**A.** Result: no binding

**Q.** Does B1 bind [3]?
**A.** Result: binds
